In assay [1] the target is T1, SARS-CoV-2 Spike receptor binding domain (RBD), reference (USA/WA_CDC-WA1/2020) (SARS-CoV-2, UniProt P0DTC2 319-591). The assay can be described thus: SPR, antibody as ligand, RBD as analyte.
Assay [2] addresses T2, SARS-CoV-2 Spike, full-length S (FL, trimer-stabilized), reference (WA1/2020) (SARS-CoV-2, UniProt P0DTC2 14-1208).
T2 construct: also called Spike trimer; intact trimer
The assay can be described thus: SPR, antibody as ligand, Trimer as analyte. A general note: Surface plasmon resonance follows binding to a sensor surface in real time, without labels.

Assay [3] deals with T3, SARS-CoV-2 Spike S1 domain, reference (SARS-CoV-2, UniProt P0DTC2 16-685).
T3 construct: domain: S1; also called S1 subunit
The assay can be described thus: HTRF, soluble S1 construct. In general terms: In TR-FRET formats the signal depends on donor and acceptor labels being close together.

Assay [4] has as its target T1, SARS-CoV-2 Spike receptor binding …. Nature of the assay: HTRF, soluble RBD construct.

B1: PR193_00018 (antibody, V domains shown)
VH: EVQLVESGGGLVQPGGSLRLSCSASGFTFSSFWMSWVRQAPGKGLEWVATIREDGSEKYYVDSVKGRFSISRDNAKNSLYLQMNSLRAEDTAVYYCARSKWLRGSFDYWGQGTLVTVSS
VL: NFMLTQPHSVSESPGKTVTISCTRRSGSIASNYVQWYQQRPGSAPTTVIYEDNQRPSGVPDRFSGSIDSSSNSASLTISGLQTEDEADYYCQSYDSSNPPGASWVFGGGTKLTVL
notes: also called IMM20184; IMM200184
A word on the Kd: it is a measure of binding affinity in units of concentration. For orientation: koff means a measure of how fast the partners let go of each other. Low readings indicate slow dissociation, high ones fast dissociation. By kon is commonly meant the rate constant with which the complex forms. A low value points to slower complex formation. Broadly, the EC50 is the concentration giving half of the maximal effect. Read a high EC50 as lower potency in that assay. Turning to B1, in assay [1], binding was characterised by a dissociation constant (Kd) of 22 nM and the koff came out at 0.00131 s⁻¹. In assay [2], this molecule yielded a Kd of 7.35 nM, a dissociation rate constant (koff) of 0.000229 s⁻¹ and an on-rate (kon) of 31200 M⁻¹ s⁻¹. Also, the concentration for a half-maximal effect (EC50) in assay [3] came out at 0.0318 nM. Also, a half-maximal effect in assay [4] (EC50) was put at 0.0448 nM.

B2: PR194_00232 (antibody, V domains shown)
VH: EVQLVESGGGLVQPGGSLRLSCSASGFTVSSNYMSWVRQAPRKGLEWVSVIYAGGSTFYADSVKGRFTISRDNSKNTLLLQMNSLRAEDTAVYYCARDRGGYLDYWGQGTLVTVSS
VL: DIQMTQSPSSLSASVGDRVTITCRASQGISNYLAWYQQKPGKVPKLLIYAASTLQSGVPSRFSGSGSGTDFTLTISSLQPEDVATYYCQKYNSAPGLTFGGGTKVEIK
notes: also called IMM20190; PR194_00190
In assay [1], B2 had a dissociation constant (Kd) of 1.87 nM, a koff of 0.000376 s⁻¹ and a kon of 202000 M⁻¹ s⁻¹. In assay [2], this molecule displayed a Kd of 6.59 nM, a dissociation rate constant (koff) of 0.000195 s⁻¹ and an association rate constant (kon) of 29500 M⁻¹ s⁻¹. This molecule also came in with a concentration giving a half-maximal response (EC50) in assay [3] of 0.056 nM. In assay [4], this molecule showed an EC50 of 0.0682 nM.

B3: PR200_00622 (antibody, V domains shown)
VH: QVQLVESGGGVVQPGRSLRLSCTASGFTFSTYGMHWVRQAPGKGLEWVAVISYDGSSKHYAESVKGRFTISRDNSNNTLYLQMNRLRAEDTAVYYCARDGQPPGWGNYFDYWGQGTLVTVAS
VL: SYVLTQPPSVSVAPGKTARITCGGNGIGSKSVYWYQQKPGQAPEVVVYDDSDRPSGIPERFSGSNSGNTATLTISRVEAGDEADYYCQVWDSSSDPWVFGGGTKLTVL
notes: also called IMM20253; PR200_00253
As to B3, the equilibrium dissociation constant (Kd) in assay [1] came to 0.157 nM; in assay [2], 1.44 nM. The koff in assay [1] was found to be 0.000218 s⁻¹; in assay [2], 0.000117 s⁻¹. For the same molecule, the association rate constant (kon) worked out at 1.39e+06 M⁻¹ s⁻¹ in assay [1] and 81300 M⁻¹ s⁻¹ in assay [2]. In addition, the figures for the 50% effective concentration (EC50) in assay [3] and in assay [4] were 0.0491 nM and 0.0527 nM, respectively.

Values taken from patent US20220235118A1 (IMMUNOME, published 2022).
